These results are taken from patent publication US20230310603A1 (BEIJING NEUROSURGICAL INSTITUTE, published 2023).

The labels stand for the following.
B1: fusion protein shown in SEQ ID NO. 6 (anti-CD133 single-chain antibody, CD28, truncated body of IL7Rα, CD3, T2A, anti-TIM3 single-chain antibody), expressed in … (other)
chain: QVQLVQSGAEVKKPGASVKVSCKASGYTFTDFEMHWVRQAPGQGLEWMGDIDPGTGDTAYNLKFKGRVTMTTDTSTSTAYMELRSLRSDDTAVYYCALGAFVYWGQGTLVTVSSGSTSGGGSGGGSGGGGSSDVVMTQSPLSLPVTPGEPASISCRSSQSLANSYGNTYLSWYLQKPGQSPQLLIYGISNRFSGVPDRFSGSGSGTDFTLKISRVEAEDVGVYYCLQGTHQPYTFGQGTKLEIKTTTPAPRPPTPAPTIASQPLSLRPEACRPAAGGAVHTRGLDFACDIYIWAPLAGTCGVLLLSLVITLYCRSKRSRLLHSDYMNMTPRRPGPTRKHYQPYAPPRDFAAYRSKKRIKPIVWPSLPDHKKTLEHLCKKPRKNLNVSFNPESFLDCQIHRVDDIQARDEVEGFLQDTFPQQLEESEKQRLLGSNQEEAYVTMSSFYQNQRVKFSRSADAPAYKQGQNQLYNELNLGRREEYDVLDKRRGRDPEMGGKPRRKNPQEGLYNELQKDKMAEAYSEIGMKGERRRGKGHDGLYQGLSTATKDTYDALHMQALPPREGRGSLLTCGDVEENPGPMTNKCLLQIALLLCFSTTALSQVQLQQSGPGLVKPSHTLSLTCTVSGGSISSGGYYWSWTRQHPGMGLEWIGYISYSGSIYYTPSLKSRLTISVDTSKNQFSLKLSSVTAADTAVYYCASLDSWGSNRDYWGQGTLVTVSSGGGGSEIVLTQSPATLSLSPGERATLSCRASQSVSSYLAWYQQKPGQAPRLLIYDASNRATGIPARFSGSGSGTDFTLTISSLEPEDFAVYYCQQRSNWPLTFGGGTKVEIK
B2: fusion protein shown in SEQ ID NO. 5 (anti-CD133 single-chain antibody, CD28, CD3, T2A, anti-TIM3 single-chain antibody), expressed in CAR-T 3 cells (other)
chain: QVQLVQSGAEVKKPGASVKVSCKASGYTFTDFEMHWVRQAPGQGLEWMGDIDPGTGDTAYNLKFKGRVTMTTDTSTSTAYMELRSLRSDDTAVYYCALGAFVYWGQGTLVTVSSGSTSGGGSGGGSGGGGSSDVVMTQSPLSLPVTPGEPASISCRSSQSLANSYGNTYLSWYLQKPGQSPQLLIYGISNRFSGVPDRFSGSGSGTDFTLKISRVEAEDVGVYYCLQGTHQPYTFGQGTKLEIKTTTPAPRPPTPAPTIASQPLSLRPEACRPAAGGAVHTRGLDFACDIYIWAPLAGTCGVLLLSLVITLYCRSKRSRLLHSDYMNMTPRRPGPTRKHYQPYAPPRDFAAYRSRVKFSRSADAPAYKQGQNQLYNELNLGRREEYDVLDKRRGRDPEMGGKPRRKNPQEGLYNELQKDKMAEAYSEIGMKGERRRGKGHDGLYQGLSTATKDTYDALHMQALPPREGRGSLLTCGDVEENPGPMTNKCLLQIALLLCFSTTALSQVQLQQSGPGLVKPSHTLSLTCTVSGGSISSGGYYWSWTRQHPGMGLEWIGYISYSGSIYYTPSLKSRLTISVDTSKNQFSLKLSSVTAADTAVYYCASLDSWGSNRDYWGQGTLVTVSSGGGGSEIVLTQSPATLSLSPGERATLSCRASQSVSSYLAWYQQKPGQAPRLLIYDASNRATGIPARFSGSGSGTDFTLTISSLEPEDFAVYYCQQRSNWPLTFGGGTKVEIK
B3: fusion protein shown in SEQ ID NO. 4 (anti-CD133 single-chain antibody, CD28, truncated body of IL7Rα, CD3), expressed on CAR-T 2 cells (other)
chain: QVQLVQSGAEVKKPGASVKVSCKASGYTFTDFEMHWVRQAPGQGLEWMGDIDPGTGDTAYNLKFKGRVTMTTDTSTSTAYMELRSLRSDDTAVYYCALGAFVYWGQGTLVTVSSGSTSGGGSGGGSGGGGSSDVVMTQSPLSLPVTPGEPASISCRSSQSLANSYGNTYLSWYLQKPGQSPQLLIYGISNRFSGVPDRFSGSGSGTDFTLKISRVEAEDVGVYYCLQGTHQPYTFGQGTKLEIKTTTPAPRPPTPAPTIASQPLSLRPEACRPAAGGAVHTRGLDFACDIYIWAPLAGTCGVLLLSLVITLYCRSKRSRLLHSDYMNMTPRRPGPTRKHYQPYAPPRDFAAYRSKKRIKPIVWPSLPDHKKTLEHLCKKPRKNLNVSFNPESFLDCQIHRVDDIQARDEVEGFLQDTFPQQLEESEKQRLLGSNQEEAYVTMSSFYQNQRVKFSRSADAPAYKQGQNQLYNELNLGRREEYDVLDKRRGRDPEMGGKPRRKNPQEGLYNELQKDKMAEAYSEIGMKGERRRGKGHDGLYQGLSTATKDTYDALHMQALPPR
B4: fusion protein shown in SEQ ID NO. 3 (anti-CD133 single-chain antibody, CD28, CD3), expressed on CAR-T 1 cells (other)
chain: QVQLVQSGAEVKKPGASVKVSCKASGYTFTDFEMHWVRQAPGQGLEWMGDIDPGTGDTAYNLKFKGRVTMTTDTSTSTAYMELRSLRSDDTAVYYCALGAFVYWGQGTLVTVSSGSTSGGGSGGGSGGGGSSDVVMTQSPLSLPVTPGEPASISCRSSQSLANSYGNTYLSWYLQKPGQSPQLLIYGISNRFSGVPDRFSGSGSGTDFTLKISRVEAEDVGVYYCLQGTHQPYTFGQGTKLEIKTTTPAPRPPTPAPTIASQPLSLRPEACRPAAGGAVHTRGLDFACDIYIWAPLAGTCGVLLLSLVITLYCRSKRSRLLHSDYMNMTPRRPGPTRKHYQPYAPPRDFAAYRSRVKFSRSADAPAYKQGQNQLYNELNLGRREEYDVLDKRRGRDPEMGGKPRRKNPQEGLYNELQKDKMAEAYSEIGMKGERRRGKGHDGLYQGLSTATKDTYDALHMQALPPR

For this assay, the target named is T1, CD133 on CD44- and CD133-positive glioma stem cells GSC20 (UniProt O43490 20-865, limits assumed).
T1 sequence (looked up): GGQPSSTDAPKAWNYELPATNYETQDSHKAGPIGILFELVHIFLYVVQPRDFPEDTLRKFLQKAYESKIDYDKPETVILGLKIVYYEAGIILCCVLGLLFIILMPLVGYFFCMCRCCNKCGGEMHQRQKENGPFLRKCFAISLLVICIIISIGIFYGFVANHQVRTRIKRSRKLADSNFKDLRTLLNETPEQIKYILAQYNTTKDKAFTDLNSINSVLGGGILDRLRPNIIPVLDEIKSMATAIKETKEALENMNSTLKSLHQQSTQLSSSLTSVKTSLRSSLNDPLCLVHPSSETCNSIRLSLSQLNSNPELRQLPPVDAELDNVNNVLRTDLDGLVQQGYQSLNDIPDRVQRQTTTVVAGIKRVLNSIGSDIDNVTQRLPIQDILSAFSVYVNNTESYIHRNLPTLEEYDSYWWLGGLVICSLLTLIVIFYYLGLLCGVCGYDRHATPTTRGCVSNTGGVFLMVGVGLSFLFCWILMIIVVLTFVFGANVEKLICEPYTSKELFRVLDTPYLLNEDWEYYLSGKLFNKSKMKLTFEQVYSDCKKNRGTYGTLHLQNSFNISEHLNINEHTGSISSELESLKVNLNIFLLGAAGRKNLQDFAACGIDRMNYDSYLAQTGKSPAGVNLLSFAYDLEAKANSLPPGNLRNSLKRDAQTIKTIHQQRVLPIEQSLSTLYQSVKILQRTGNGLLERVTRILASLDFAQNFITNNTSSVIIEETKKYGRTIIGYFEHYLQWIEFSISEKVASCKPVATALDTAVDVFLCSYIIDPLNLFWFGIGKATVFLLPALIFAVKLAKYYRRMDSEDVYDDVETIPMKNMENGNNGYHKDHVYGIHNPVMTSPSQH
Nature of the assay: cell-based or functional assay.
Consider B1, for which the “Lysis rate of glioma stem cells GSC20 by CAR-T cells (LDH release, 4 h), effect-target ratio 1:1” value was determined as 31.4%; the “Lysis rate of glioma stem cells GSC20 by CAR-T cells (LDH release, 4 h), effect-target ratio 2:1” value was 36.8%; the “Lysis rate of glioma stem cells GSC20 by CAR-T cells (LDH release, 4 h), effect-target ratio 3:1” value was determined as 69.6%; the “Lysis rate of glioma stem cells GSC20 by CAR-T cells (LDH release, 4 h), effect-target ratio 5:1” value is 87.2%.
Taken in the same sequence, the figures for B2 were 16.9%, 20.3%, 35.3% and 49.5%.
Regarding B3, the “Lysis rate of glioma stem cells GSC20 by CAR-T cells (LDH release, 4 h), effect-target ratio 1:1” value amounted to 16.3%; the “Lysis rate of glioma stem cells GSC20 by CAR-T cells (LDH release, 4 h), effect-target ratio 2:1” value turned out to be 28%; the “Lysis rate of glioma stem cells GSC20 by CAR-T cells (LDH release, 4 h), effect-target ratio 3:1” value was found to be 39.6%; the “Lysis rate of glioma stem cells GSC20 by CAR-T cells (LDH release, 4 h), effect-target ratio 5:1” value was determined as 43.4%.
Taken in the same sequence, the figures for B4 were 6.53%, 26%, 33.5% and 41.4%.
